Assay results published in the Human Domainome abundance scans (Beltran et al. 2025).
± gives the uncertainty stated by the source.

B1: Gamma-crystallin C, residues 4 to 79; numbered along this chain, P07315 (parent)
chain: ITFYEDRAFQGRSYETTTDCPNLQPYFSRCNSIRVESGCWMLYERPNYQGQQYLLRRGEYPDYQQWMGLSDSIRSC

Variants of: B1
Test: abundance fitness (aPCA) (normalised: wild type 0, dead -1); higher = more abundant; growth selection in yeast, the domain comes from the species named
Conditions: Homo sapiens

**Q.** For ITFYEDRAFQGRSYETTTDCPNLQPYFSRCNSIRVESGCWMLYERPNYTGQQYLLRRGEYPDYQQWMGLSDSIRSC [Q49T], which abundance fitness is on record?
**A.** 0.026 ± 0.12

**Q.** For ITFYEDRAFQGRSYETTTDCPNLQPYFSRCNSIRVESGCWMLYERPNYWGQQYLLRRGEYPDYQQWMGLSDSIRSC [Q49W], which abundance fitness is on record?
**A.** -0.275 ± 0.09

**Q.** Which abundance fitness does the source give for ITFYEDRAFQGRSYETTTDCPNLQPYFSRCNSIRVESGCWMLYERPNYQGQQYLLRRGEYPDYQQWMGLSDSIRKC [S75K] here?
**A.** -0.59 ± 0.19

**Q.** With ITFYEDRAFQGRSYETTTDCPNLQPYFSRCNSIRVESGCWMLYERPNYQGQQYLLRRGEYPDWQQWMGLSDSIRSC [Y63W] as the variant, how does the abundance fitness read?
**A.** -0.126 ± 0.073

**Q.** Which abundance fitness does the source give for ITFYEDRAFQGRSYETTTDCPNLQPYFSRCNSITVESGCWMLYERPNYQGQQYLLRRGEYPDYQQWMGLSDSIRSC [R34T] here?
**A.** 0.047 ± 0.28

**Q.** With ITFYEDRAFQGRSYETTTDCPNLQPYFSRCNSIQVESGCWMLYERPNYQGQQYLLRRGEYPDYQQWMGLSDSIRSC [R34Q] as the variant, how does the abundance fitness read?
**A.** -0.041 ± 0.17

**Q.** For ITFYEDRAFQGRSYETTTDCPNLQPYFSRCNSISVESGCWMLYERPNYQGQQYLLRRGEYPDYQQWMGLSDSIRSC [R34S], which abundance fitness is on record?
**A.** -0.143 ± 0.096

**Q.** With ITFYEDRAFQGRSYETTTDCPNLQPYFSRCNSIRVESGCWMLYERPNYQGIQYLLRRGEYPDYQQWMGLSDSIRSC [Q51I] as the variant, how does the abundance fitness read?
**A.** 0.078 ± 0.34

**Q.** For ITFYEDRAFQGRSYETTTDCPNLQPYFSRCNSIRVESGCWMLYERPNYQGLQYLLRRGEYPDYQQWMGLSDSIRSC [Q51L], which abundance fitness is on record?
**A.** 0.014 ± 0.16

**Q.** Which abundance fitness does the source give for ITFYEDRAFQGRSYETTTDCPNLQPYFSRCNSIRVEQGCWMLYERPNYQGQQYLLRRGEYPDYQQWMGLSDSIRSC [S37Q] here?
**A.** -0.124 ± 0.11

**Q.** For ITFYEDRAFQGRSYETTTDCPNLQPYFSRCNSIRVASGCWMLYERPNYQGQQYLLRRGEYPDYQQWMGLSDSIRSC [E36A], which abundance fitness is on record?
**A.** 0.048 ± 0.19

**Q.** With ITFYEDRAFQGRSYETTTDCPNLQPYFSRCNSIRVNSGCWMLYERPNYQGQQYLLRRGEYPDYQQWMGLSDSIRSC [E36N] as the variant, how does the abundance fitness read?
**A.** -0.004 ± 0.16

**Q.** For ITFYEDRAFQGRSYETTTDCPNLQPYFSRCNSIRVWSGCWMLYERPNYQGQQYLLRRGEYPDYQQWMGLSDSIRSC [E36W], which abundance fitness is on record?
**A.** 0.003 ± 0.11

**Q.** For ITFYEDRAFQGRSYETTTDCPNLQPYFSRCNSIRVDSGCWMLYERPNYQGQQYLLRRGEYPDYQQWMGLSDSIRSC [E36D], which abundance fitness is on record?
**A.** 0.021 ± 0.13

**Q.** Which abundance fitness does the source give for ITFREDRAFQGRSYETTTDCPNLQPYFSRCNSIRVESGCWMLYERPNYQGQQYLLRRGEYPDYQQWMGLSDSIRSC [Y4R] here?
**A.** -0.99 ± 0.16

**Q.** For ITFLEDRAFQGRSYETTTDCPNLQPYFSRCNSIRVESGCWMLYERPNYQGQQYLLRRGEYPDYQQWMGLSDSIRSC [Y4L], which abundance fitness is on record?
**A.** -0.984 ± 0.16

**Q.** With ITFYEDRAFQGRSYETTTDCPNLQPYFSRCNSIRCESGCWMLYERPNYQGQQYLLRRGEYPDYQQWMGLSDSIRSC [V35C] as the variant, how does the abundance fitness read?
**A.** -0.291 ± 0.15

**Q.** For ITFYEDRAFRGRSYETTTDCPNLQPYFSRCNSIRVESGCWMLYERPNYQGQQYLLRRGEYPDYQQWMGLSDSIRSC [Q10R], which abundance fitness is on record?
**A.** -0.082 ± 0.052

**Q.** For ITFYEDRAFAGRSYETTTDCPNLQPYFSRCNSIRVESGCWMLYERPNYQGQQYLLRRGEYPDYQQWMGLSDSIRSC [Q10A], which abundance fitness is on record?
**A.** 0.065 ± 0.076

**Q.** For ITFYEDRAFQGRSYETTTDCPCLQPYFSRCNSIRVESGCWMLYERPNYQGQQYLLRRGEYPDYQQWMGLSDSIRSC [N22C], which abundance fitness is on record?
**A.** -0.123 ± 0.31

**Q.** With ITFYEDRAFQGRSYETTTDCPNLQPYFSRCNSIRVESGCWMLYERPNYQGQWYLLRRGEYPDYQQWMGLSDSIRSC [Q52W] as the variant, how does the abundance fitness read?
**A.** -0.141 ± 0.13

**Q.** For ITFYEDRAFQGRSYETTTDCPNLQPYFSRCNSIRVESGCWMLYERPNYQGQQYLLRRGEYHDYQQWMGLSDSIRSC [P61H], which abundance fitness is on record?
**A.** -0.205 ± 0.14

**Q.** For ITFYEDRAFQGRSYETTTDCPNLQPYFSRCNSIRVESGCDMLYERPNYQGQQYLLRRGEYPDYQQWMGLSDSIRSC [W40D], which abundance fitness is on record?
**A.** -0.849 ± 0.28

**Q.** For ITFYEDRAFQGRSYETTTDCPNLQPYFSRCNSRRVESGCWMLYERPNYQGQQYLLRRGEYPDYQQWMGLSDSIRSC [I33R], which abundance fitness is on record?
**A.** -0.883 ± 0.15

**Q.** For ITFYEDRAFQGRSYETTTDCPNLQPYFSRCNSQRVESGCWMLYERPNYQGQQYLLRRGEYPDYQQWMGLSDSIRSC [I33Q], which abundance fitness is on record?
**A.** -0.792 ± 0.27

**Q.** With ITFYEDRAFQGRSYETTMDCPNLQPYFSRCNSIRVESGCWMLYERPNYQGQQYLLRRGEYPDYQQWMGLSDSIRSC [T18M] as the variant, how does the abundance fitness read?
**A.** -0.008 ± 0.11

**Q.** Which abundance fitness does the source give for ITFYEDRAFQGRSYETTTDCPNLQPYFSRCNSIRVESGCWMLYERPNYQGQQYLLRRGEYPDYGQWMGLSDSIRSC [Q64G] here?
**A.** -0.045 ± 0.059

**Q.** With ITFYEDRAFQGRSYETTTDCPNLQPYFSRCNSIRVESGCWMLYERPNYQGQQQLLRRGEYPDYQQWMGLSDSIRSC [Y53Q] as the variant, how does the abundance fitness read?
**A.** -0.094 ± 0.096

**Q.** Which abundance fitness does the source give for ITFYEDRAFQGRSYETTTDCPNLQPYFSRCNSIRVESGCWMLYERPLYQGQQYLLRRGEYPDYQQWMGLSDSIRSC [N47L] here?
**A.** -0.01 ± 0.066

**Q.** For ITFYEDRYFQGRSYETTTDCPNLQPYFSRCNSIRVESGCWMLYERPNYQGQQYLLRRGEYPDYQQWMGLSDSIRSC [A8Y], which abundance fitness is on record?
**A.** -0.101 ± 0.42

**Q.** With ITFYEDRNFQGRSYETTTDCPNLQPYFSRCNSIRVESGCWMLYERPNYQGQQYLLRRGEYPDYQQWMGLSDSIRSC [A8N] as the variant, how does the abundance fitness read?
**A.** 0.181 ± 0.34

**Q.** For ITFYEDQAFQGRSYETTTDCPNLQPYFSRCNSIRVESGCWMLYERPNYQGQQYLLRRGEYPDYQQWMGLSDSIRSC [R7Q], which abundance fitness is on record?
**A.** 0.013 ± 0.073

**Q.** For ITFYEDAAFQGRSYETTTDCPNLQPYFSRCNSIRVESGCWMLYERPNYQGQQYLLRRGEYPDYQQWMGLSDSIRSC [R7A], which abundance fitness is on record?
**A.** -0.031 ± 0.089

**Q.** For ITFYEDRAFQGRSYETTTDCPNLQPYFERCNSIRVESGCWMLYERPNYQGQQYLLRRGEYPDYQQWMGLSDSIRSC [S28E], which abundance fitness is on record?
**A.** 0.093 ± 0.098

**Q.** With ITFYEDRAFQGRSYETTTDCPNLQPYFLRCNSIRVESGCWMLYERPNYQGQQYLLRRGEYPDYQQWMGLSDSIRSC [S28L] as the variant, how does the abundance fitness read?
**A.** -0.082 ± 0.1

**Q.** With ITFYEDRAFQGRSYETTTDPPNLQPYFSRCNSIRVESGCWMLYERPNYQGQQYLLRRGEYPDYQQWMGLSDSIRSC [C20P] as the variant, how does the abundance fitness read?
**A.** -0.64 ± 0.13

**Q.** Which abundance fitness does the source give for ITTYEDRAFQGRSYETTTDCPNLQPYFSRCNSIRVESGCWMLYERPNYQGQQYLLRRGEYPDYQQWMGLSDSIRSC [F3T] here?
**A.** -0.753 ± 0.27

**Q.** With ITCYEDRAFQGRSYETTTDCPNLQPYFSRCNSIRVESGCWMLYERPNYQGQQYLLRRGEYPDYQQWMGLSDSIRSC [F3C] as the variant, how does the abundance fitness read?
**A.** -0.586 ± 0.13

**Q.** For ITFYEDRAFQGRSYETTTDCPNLQPYTSRCNSIRVESGCWMLYERPNYQGQQYLLRRGEYPDYQQWMGLSDSIRSC [F27T], which abundance fitness is on record?
**A.** 0.079 ± 0.11

**Q.** Which abundance fitness does the source give for ITFYEDRAFQGRSYETTTDCPNLQPYMSRCNSIRVESGCWMLYERPNYQGQQYLLRRGEYPDYQQWMGLSDSIRSC [F27M] here?
**A.** 0.064 ± 0.15

**Q.** With ITFYEDRAFQGRSYETTTDCPNLQPYFSRCNSIRVESGCWMLYERPNYQGQQYHLRRGEYPDYQQWMGLSDSIRSC [L54H] as the variant, how does the abundance fitness read?
**A.** -0.068 ± 0.22
